Reference: patent WO2011083140A1 (dated 2011)
Values joined by “and” are separate entries in the source; they are usually repeats but may differ in a detail not shown here. Identical values can stand only once.

B1: 4CXCR010E09 (VHH)
VHH: EVQLVESGGGLVQTGGSLRLSCAASGRTFSSYAMGWFRRAPGKEREFVATISWRGDRKYYSESVKDRFTIARGRSNKNAVYLQMNSLKPEDTAVYYCAKDRAPYGSGSPDVKQYEHWGQGTQVTVSS
notes: Monovalent Nanobody from E. coli; also called 10E9; P4CXCR10E09; not shown: C-terminal c-myc tag and His6 tag
B2: 4CXCR010G10 (VHH)
VHH: EVQLVESGGGLVQAGGSLRLSCAASGRTFNSYAMAWFRQAPGKERENVAAIRWSGGRATKYADSVRGRFTISKDNAKNTVYLQMSSLKPEDTAVYYCATQTYYRSGLASTRDFDSWGQGTQVTVSS
modifications: Alexa-647 label in the competition FACS of D-2
notes: also called P4CXCR10G10; not shown: C-terminal c-myc tag and His6 tag
B3: 4CXCR281E10 (VHH)
VHH: EVQLVESGGGLVQAGGSLRLSCKASGGTFNNYAMGWFRRAPGKEREFVAAITRSGVRSGVSAIYGDSVKDRFTISRDNVKNTLYLQMNTLKPEDTAVYTCAASAIGSGALRRFEYDYSGQGTQVTVSS
notes: Family member of 238D4 (family 17); also called P4CXCR281E10; not shown: C-terminal c-myc tag and His6 tag
B4: 4CXCR010E12 (VHH)
VHH: EVQLVESGGGLVQAGGSLRLSCAVSGRTFTSYDMAWFRQAPGKERESVAAIRWTGSSTYYADSVKGRFTISRDNAKSTVYLQMNSLKPEDTAVYYCAARDTGRYRSRTYDYWGQGTQVTVSS
notes: also called P4CXCR10E12; not shown: C-terminal c-myc tag and His6 tag
B5: 4CXCR015H03 (VHH)
VHH: EVQLVESGGGSVQTGGSLRVSCAASGLSFNTYTMGWLRQAPGKEREFVAVINWNGDRTNYADSVKGRFSVSRDNAKNTVFLQMNSLRPEDTAVYYCAARPRFTAEPMTSRRYQYWGRGTQVTVSS
notes: also called 15H3; P4CXCR15H3; not shown: C-terminal c-myc tag and His6 tag
B6: 4CXCR014A02 (VHH)
VHH: EVQLVESGGGLVQAGGSLRLSCVASGISSSIRNMGWYRQAPGKQRESVATISSGGNKDYTDAVKDRFTISRDTTKNTVYLQMSSLKPEDTAVYYCKIEAGTGWATRRGYTYWGQGTQVTVSS
notes: also called 14A2; not shown: C-terminal c-myc tag and His6 tag
B7: 4CXCR015A01 (VHH, not shown: small tags and cut ends)
VHH: EVQLVESGGGLVQAGGSLRLSCAASGRTFSRAAMGWFRQAPGKEREFVGCALSSAGSALTADSVKGRFTISRDNAKNMVYLQMNNLKPEDTAVYSCVAGGYCTRAGVYPYWGQGTQVTVSS
notes: also called 15A1; P4CXCR15A01

Experiments:
[1] = target: T1, human CXCR4 (human, UniProt P61073 1-352); test: cell-based or functional assay
T1 sequence (P61073 whole entry): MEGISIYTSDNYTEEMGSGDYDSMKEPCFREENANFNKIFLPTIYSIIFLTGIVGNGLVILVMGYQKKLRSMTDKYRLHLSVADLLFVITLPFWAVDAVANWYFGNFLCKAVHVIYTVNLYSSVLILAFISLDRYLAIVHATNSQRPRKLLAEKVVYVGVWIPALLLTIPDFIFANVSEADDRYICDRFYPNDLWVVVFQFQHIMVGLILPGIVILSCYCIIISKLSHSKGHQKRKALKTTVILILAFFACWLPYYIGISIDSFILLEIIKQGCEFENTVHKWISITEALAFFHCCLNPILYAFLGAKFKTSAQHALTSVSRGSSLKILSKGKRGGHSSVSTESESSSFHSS

[2] = target: T1, human CXCR4; test: SDF-1 displacement (competition with SDF-1 for CXCR4), Table C-3
[3] = target: T1, human CXCR4; test: binding to Caki-CXCR4 cells, Table C-3
[4] = target: T1, human CXCR4; test: binding to CXCR4 VLP, Table C-3
[5] = target: T2, mouse CXCR4 (mouse, UniProt P70658 1-359); test: binding FACS on murine BaF-3 cells, anti-myc detection
T2 construct: whole, on cells; also called mCXCR4
T2 sequence (P70658 whole entry): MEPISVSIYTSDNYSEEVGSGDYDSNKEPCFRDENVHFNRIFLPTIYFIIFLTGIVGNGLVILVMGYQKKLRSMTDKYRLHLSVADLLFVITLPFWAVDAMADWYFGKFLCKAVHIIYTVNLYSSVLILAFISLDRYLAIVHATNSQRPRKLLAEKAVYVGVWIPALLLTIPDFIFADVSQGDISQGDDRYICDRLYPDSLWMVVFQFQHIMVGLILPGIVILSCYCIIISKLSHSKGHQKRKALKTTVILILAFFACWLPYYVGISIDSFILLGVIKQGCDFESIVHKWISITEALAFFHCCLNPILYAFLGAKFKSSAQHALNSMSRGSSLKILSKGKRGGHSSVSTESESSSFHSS

[6] = target: T3, CXCR4 D187V (human, UniProt P61073 1-352); test: flow cytometry on transiently transfected HEK293T cells, Myc-tag detection
T3 construct: whole, on cells; Printed as Dl 87V in this copy
T3 sequence (P61073 whole entry D187V): as the sequence (P61073 whole entry) above, with D187V counted along it

[7] = target: T4, CXCR4 F189V (human, UniProt P61073 1-352); test: as above
T4 construct: whole, on cells
T4 sequence (P61073 whole entry F189V): as the sequence (P61073 whole entry) above, with F189V counted along it

[8] = target: T5, CXCR4 V196E (human, UniProt P61073 1-352); test: as above
T5 construct: whole, on cells
T5 sequence (P61073 whole entry V196E): as the sequence (P61073 whole entry) above, with V196E counted along it

| Binder | Chemotaxis IC50 (M) +HSA [1] [M] | Chemotaxis IC50 (M) -HSA [1] [M] | Chemotaxis IC50 (nM) Jurkat [1] | IC50 [2] [nM] | EC50 [3] [nM] | EC50 [4] [nM] | Chemotaxis Jurkat cells IC50 (M) n=1 [1] [M] | Chemotaxis Jurkat cells IC50 (M) n=2 [1] [M] | Chemotaxis Jurkat cells IC50 (M) n=3 [1] [M] | cAMP inhibition assay IC50 (M) n=1 [1] [M] | cAMP inhibition assay IC50 (M) n=2 [1] [M] | binding result [5] | binding result [6] | binding result [7] | binding result [8] |
| --- | --- | --- | --- | --- | --- | --- | --- | --- | --- | --- | --- | --- | --- | --- | --- |
| B1 | 1.93e-09 | 3.29e-09 | 3.5 nM and 1.2 nM | 4.7 | 2.4 | 0.52 |  |  |  |  |  |  |  |  |  |
| B2 | 7.74e-10 | 4.11e-09 | 2.1 nM and 2.3 nM | 7.9 | 3.3 | 0.29 | 2.1e-09 | 2.3e-09 | 4.1e-09 | 1.6e-07 | 9.6e-07 | no binding |  |  |  |
| B3 | 2.2e-09 | 2.08e-09 | 3.5 nM and 4.7 nM | 3.1 | 3.1 |  |  |  |  |  |  |  |  |  |  |
| B4 | 1.12e-09 | 2.78e-09 | 3.5 nM and 1.4 nM | 3 |  | 0.22 |  |  |  |  |  | no binding |  |  |  |
| B5 |  |  |  |  |  |  |  |  |  |  |  |  | binds | binds | binds |
| B6 |  |  |  | 4.1 | 4 | 0.73 | 3.3e-09 | 8.1e-10 |  | 4e-07 | 2.5e-06 |  |  |  |  |
| B7 | 1.18e-09 | 1.7e-09 |  | 5.1 |  | 0.2 |  |  |  |  |  |  |  |  |  |
